The text below walks through data of PMC8908248 (The Journal of Biological Chemistry, 2022).

Data set [1] deals with homodimeric sulfite oxidase Mo domain (Mo/Mo) (human). The data set is described as follows: SEC. (SEC sorts molecules by how far they enter the pores of the column.)
The data set “SEC” concerns the molecule itself. The data set is described as follows: SEC.

What is called stoichiometry N is a count of units in the complex or per binding partner. Take “homodimeric sulfite oxidase Mo domain (Mo/Mo) (domain or fragment)”: in data set [1], the stoichiometry N is 2.

B1: mature full-length human sulfite oxidase (WT SOX/SOX homodimer) (enzyme, UniProt P51687 80-545, looked up)
chain: ESTHIYTKEEVSSHTSPETGIWVTLGSEVFDVTEFVDLHPGGPSKLMLAAGGPLEPFWALYAVHNQSHVRELLAQYKIGELNPEDKVAPTVETSDPYADDPVRHPALKVNSQRPFNAEPPPELLTENYITPNPIFFTRNHLPVPNLDPDTYRLHVVGAPGGQSLSLSLDDLHNFPRYEITVTLQCAGNRRSEMTQVKEVKGLEWRTGAISTARWAGARLCDVLAQAGHQLCETEAHVCFEGLDSDPTGTAYGASIPLARAMDPEAEVLLAYEMNGQPLPRDHGFPVRVVVPGVVGARHVKWLGRVSVQPEESYSHWQRRDYKGFSPSVDWETVDFDSAPSIQELPVQSAITEPRDGETVESGEVTIKGYAWSGGGRAVIRVDVSLDGGLTWQVAKLDGEEQRPRKAWAWRLWQLKAPVPAGQKELNIVCKAVDDGYNVQPDTVAPIWNLRGVLSNAWHRVHVYVSP
B1: the “stoichiometry N” value in the data set “SEC” was 2.
